Test results taken from the supplement of paper PMC10126150.
± gives the standard deviation of the averaged measurements.

Test system: ATP
Test: switch fluorescence ratio, 500 uM ATP over buffer (Cy3 cluster intensity, sum of 5 cycles each) (fold (ratio)); higher = stronger signal-on switching upon ATP binding; sequences stand for … in TCGTCGGCAGCGTCAGATGTGTATAAGAGACAGTTTTTTTTTTTTTTTTTTTTTTTTT…TC
Details: aptamer strand: ATP DNA aptamer (quencher-CACCTGGGGGAGTATTGCGGAGGAAGG + anchor), 100 nM annealed; ATP concentration: 500 uM
Procedure, shortened: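 Exposure to 500 uM ATP lasted 15 min at 22 °C before imaging, and a selection-buffer image was taken beforehand, for Cy3-labelled switching-strand clusters on a modified Illumina MiSeq flow-cell annealed to 100 nM quencher-labelled ATP aptamer. Five buffer/ATP cycles were run with NaOH stripping and re-annealing between them. The fluorescence ratio per cluster is summed target-cycle over summed buffer-cycle Cy3 intensity, averaged per switch-domain sequence. Clusters outside 100-1000 RFU were excluded.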

## GGTGAAGGGG
  switch fluorescence ratio: 1.15 ± 0.27

## GGTGAAGTGC
  switch fluorescence ratio: 0.992 ± 0.068

## GGTGACTTGG
  switch fluorescence ratio: 1.01 ± 0.055

## GGTGAGCCTT
  switch fluorescence ratio: 0.987 ± 0.012

## GGTGAGGGAC
  switch fluorescence ratio: 1.02 ± 0.011

## GGTGATGCGC
  switch fluorescence ratio: 0.978 ± 0.034

## GGTGATGGGG
  switch fluorescence ratio: 0.985 ± 0.038

## GGTGATGTGT
  switch fluorescence ratio: 1.004 ± 0.0075

## GGTGATTGTG
  switch fluorescence ratio: 0.9826 ± 0.004

## GGTGATTTAA
  switch fluorescence ratio: 1.01 ± 0.012

## GGTGATTTAT
  switch fluorescence ratio: 1.01 ± 0.029

## GGTGCATAGC
  switch fluorescence ratio: 0.9714 ± 0.0074

## GGTGCATGAC
  switch fluorescence ratio: 1.39 ± 0.0037

## GGTGCGGGGT
  switch fluorescence ratio: 0.983 ± 0.016

## GGTGCTAGCG
  switch fluorescence ratio: 1.0247 ± 0.00089

## GGTGCTTAGG
  switch fluorescence ratio: 1.02 ± 0.024

## GGTGCTTGGT
  switch fluorescence ratio: 0.989 ± 0.018

## GGTGGAAAGG
  switch fluorescence ratio: 0.982 ± 0.043

## GGTGGAAGAG
  switch fluorescence ratio: 0.982 ± 0.036

## GGTGGAAGCT
  switch fluorescence ratio: 1.01 ± 0.025

## GGTGGAAGGG
  switch fluorescence ratio: 0.975 ± 0.03

## GGTGGAATCA
  switch fluorescence ratio: 0.9816 ± 0.0017

## GGTGGACAAC
  switch fluorescence ratio: 0.997 ± 0.013

## GGTGGAGCCC
  switch fluorescence ratio: 0.962 ± 0.04

## GGTGGAGGAA
  switch fluorescence ratio: 1.027 ± 0.0053

## GGTGGAGGAG
  switch fluorescence ratio: 0.979 ± 0.023

## GGTGGAGGGT
  switch fluorescence ratio: 0.9938 ± 0.0025

## GGTGGATGCC
  switch fluorescence ratio: 1.02 ± 0.04

## GGTGGATTGG
  switch fluorescence ratio: 1.07 ± 0.1

## GGTGGCAGGA
  switch fluorescence ratio: 1.01 ± 0.032

## GGTGGCGCTA
  switch fluorescence ratio: 1.01 ± 0.02

## GGTGGGCGGG
  switch fluorescence ratio: 1.01 ± 0.016

## GGTGGGGACG
  switch fluorescence ratio: 0.974 ± 0.037

## GGTGGGGCAC
  switch fluorescence ratio: 0.999 ± 0.041

## GGTGGGGCCC
  switch fluorescence ratio: 0.983 ± 0.032

## GGTGGGGGGA
  switch fluorescence ratio: 1.01 ± 0.063

## GGTGGGGGT
  switch fluorescence ratio: 1.35 ± 0.48

## GGTGGGTATA
  switch fluorescence ratio: 1 ± 0.037

## GGTGGGTGGG
  switch fluorescence ratio: 0.999 ± 0.042

## GGTGGTACGT
  switch fluorescence ratio: 0.999 ± 0.022

## GGTGGTACTG
  switch fluorescence ratio: 1.01 ± 0.037

## GGTGGTAGGC
  switch fluorescence ratio: 1 ± 0.046

## GGTGGTCGGG
  switch fluorescence ratio: 0.982 ± 0.0053

## GGTGGTGACT
  switch fluorescence ratio: 1.01 ± 0.036

## GGTGGTGGGC
  switch fluorescence ratio: 0.954 ± 0.01

## GGTGGTGTCG
  switch fluorescence ratio: 1 ± 0.017

## GGTGGTGTTT
  switch fluorescence ratio: 1 ± 0.026

## GGTGGTTGGA
  switch fluorescence ratio: 1.02 ± 0.04

## GGTGTAAGAA
  switch fluorescence ratio: 1.002 ± 0.0085

## GGTGTACGGA
  switch fluorescence ratio: 0.972 ± 0.043

## GGTGTATTAG
  switch fluorescence ratio: 1 ± 0.029

## GGTGTATTTG
  switch fluorescence ratio: 0.981 ± 0.013

## GGTGTCTTCA
  switch fluorescence ratio: 1.06 ± 0.076

## GGTGTGAATT
  switch fluorescence ratio: 1.02 ± 0.034

## GGTGTGAGGT
  switch fluorescence ratio: 0.9973 ± 0.0093

## GGTGTGAGTA
  switch fluorescence ratio: 1.01 ± 0.016

## GGTGTGATTG
  switch fluorescence ratio: 0.977 ± 0.04

## GGTGTGCACC
  switch fluorescence ratio: 1 ± 0.025

## GGTGTGGGCG
  switch fluorescence ratio: 0.983 ± 0.079

## GGTGTGTCTC
  switch fluorescence ratio: 1.03 ± 0.065

## GGTGTGTTGC
  switch fluorescence ratio: 0.998 ± 0.06

## GGTGTTAAAC
  switch fluorescence ratio: 1.01 ± 0.035

## GGTGTTATGT
  switch fluorescence ratio: 1.01 ± 0.016

## GGTGTTCTGA
  switch fluorescence ratio: 1.01 ± 0.023

## GGTGTTGGCT
  switch fluorescence ratio: 1.02 ± 0.059

## GGTGTTGGTG
  switch fluorescence ratio: 1.01 ± 0.025

## GGTGTTTGCT
  switch fluorescence ratio: 0.965 ± 0.022

## GGTTAAGTGT
  switch fluorescence ratio: 1.01 ± 0.021

## GGTTACCTTC
  switch fluorescence ratio: 1.356 ± 0.0068

## GGTTACTGGT
  switch fluorescence ratio: 1.01 ± 0.03

## GGTTAGATAC
  switch fluorescence ratio: 1.19 ± 0.025

## GGTTAGATGT
  switch fluorescence ratio: 0.9766 ± 0.0075

## GGTTAGGGGA
  switch fluorescence ratio: 0.994 ± 0.036

## GGTTATAGGA
  switch fluorescence ratio: 0.99 ± 0.036

## GGTTATAGTC
  switch fluorescence ratio: 0.966 ± 0.02

## GGTTATATAG
  switch fluorescence ratio: 1.01 ± 0.016

## GGTTATCGTA
  switch fluorescence ratio: 1.02 ± 0.011

## GGTTATGAGG
  switch fluorescence ratio: 0.994 ± 0.031

## GGTTATGCGG
  switch fluorescence ratio: 1.01 ± 0.046

## GGTTATTGCT
  switch fluorescence ratio: 1.02 ± 0.0033

## GGTTATTTGT
  switch fluorescence ratio: 0.992 ± 0.041

## GGTTATTTTG
  switch fluorescence ratio: 1.01 ± 0.015

## GGTTCAATTG
  switch fluorescence ratio: 1.03 ± 0.089

## GGTTCAGATG
  switch fluorescence ratio: 1.0081 ± 0.00081

## GGTTCAGCTT
  switch fluorescence ratio: 0.981 ± 0.013

## GGTTCAGGCT
  switch fluorescence ratio: 0.977 ± 0.025

## GGTTCCGTGG
  switch fluorescence ratio: 0.994 ± 0.023

## GGTTGAGGGG
  switch fluorescence ratio: 0.985 ± 0.034

## GGTTGAGGTG
  switch fluorescence ratio: 1.01 ± 0.039

## GGTTGATAAT
  switch fluorescence ratio: 1.002 ± 0.0043

## GGTTGCGGCA
  switch fluorescence ratio: 1.01 ± 0.041

## GGTTGCTAGG
  switch fluorescence ratio: 0.9916 ± 0.0037

## GGTTGGAATT
  switch fluorescence ratio: 1.01 ± 0.025

## GGTTGGATTT
  switch fluorescence ratio: 0.978 ± 0.017

## GGTTGGGATC
  switch fluorescence ratio: 0.9513 ± 0.0082

## GGTTGGGGGT
  switch fluorescence ratio: 1.01 ± 0.045

## GGTTGGGTCC
  switch fluorescence ratio: 0.9701 ± 0.0018

## GGTTGGTGGT
  switch fluorescence ratio: 1.028 ± 0.0064

## GGTTGGTGTG
  switch fluorescence ratio: 0.967 ± 0.023

## GGTTGGTTTC
  switch fluorescence ratio: 1.01 ± 0.055

## GGTTGGTTTG
  switch fluorescence ratio: 0.99 ± 0.06

## GGTTGGTTTT
  switch fluorescence ratio: 0.992 ± 0.024

## GGTTGTCCAG
  switch fluorescence ratio: 0.9966 ± 0.0014

## GGTTGTCTTA
  switch fluorescence ratio: 0.9726 ± 0.0018

## GGTTGTTTTG
  switch fluorescence ratio: 1.017 ± 0.0097

## GGTTTAAACT
  switch fluorescence ratio: 0.987 ± 0.016

## GGTTTAAAGG
  switch fluorescence ratio: 0.996 ± 0.015

## GGTTTAAATT
  switch fluorescence ratio: 1 ± 0.018

## GGTTTAAGAT
  switch fluorescence ratio: 1.0263 ± 0.00079

## GGTTTAATTT
  switch fluorescence ratio: 0.993 ± 0.026

## GGTTTACGGA
  switch fluorescence ratio: 0.964 ± 0.01

## GGTTTAGATG
  switch fluorescence ratio: 1.02 ± 0.015

## GGTTTAGGGA
  switch fluorescence ratio: 0.996 ± 0.039

## GGTTTATATG
  switch fluorescence ratio: 1.035 ± 0.0011

## GGTTTATTGT
  switch fluorescence ratio: 0.993 ± 0.056

## GGTTTCAATA
  switch fluorescence ratio: 1.0088 ± 0.00023

## GGTTTCATAT
  switch fluorescence ratio: 0.996 ± 0.026

## GGTTTCCCT
  switch fluorescence ratio: 0.973 ± 0.019

## GGTTTCCTGG
  switch fluorescence ratio: 0.971 ± 0.031

## GGTTTCGCGA
  switch fluorescence ratio: 1.07 ± 0.053

## GGTTTCGGCA
  switch fluorescence ratio: 1.01 ± 0.0045

## GGTTTCTCTT
  switch fluorescence ratio: 1.003 ± 0.0099

## GGTTTGAGGT
  switch fluorescence ratio: 0.993 ± 0.027

## GGTTTGCGGG
  switch fluorescence ratio: 1.01 ± 0.0095

## GGTTTGGCTG
  switch fluorescence ratio: 0.993 ± 0.038

## GGTTTGGGG
  switch fluorescence ratio: 1.03 ± 0.016

## GGTTTGGGGT
  switch fluorescence ratio: 0.99 ± 0.032

## GGTTTGGGTT
  switch fluorescence ratio: 0.998 ± 0.037

## GGTTTGGTG
  switch fluorescence ratio: 1.006 ± 0.0058

## GGTTTTAATG
  switch fluorescence ratio: 0.988 ± 0.031

## GGTTTTAGTT
  switch fluorescence ratio: 0.986 ± 0.03

## GGTTTTATAT
  switch fluorescence ratio: 1.006 ± 0.0068

## GGTTTTGAAG
  switch fluorescence ratio: 0.9959 ± 0.0063

## GGTTTTGACA
  switch fluorescence ratio: 0.9941 ± 0.0065

## GGTTTTGAGA
  switch fluorescence ratio: 1.02 ± 0.029

## GGTTTTGAGG
  switch fluorescence ratio: 0.973 ± 0.011

## GGTTTTGCAG
  switch fluorescence ratio: 0.9946 ± 0.0069

## GGTTTTGTGG
  switch fluorescence ratio: 1.01 ± 0.03

## GGTTTTGTGT
  switch fluorescence ratio: 0.962 ± 0.038

## GGTTTTTCTG
  switch fluorescence ratio: 0.992 ± 0.061

## GGTTTTTGGA
  switch fluorescence ratio: 0.981 ± 0.038

## GGTTTTTGTG
  switch fluorescence ratio: 1.01 ± 0.034

## GTAAAAGCGG
  switch fluorescence ratio: 0.9788 ± 0.0082

## GTAAAATGGG
  switch fluorescence ratio: 0.997 ± 0.011

## GTAAAGGGCG
  switch fluorescence ratio: 0.973 ± 0.021

## GTAAATATAG
  switch fluorescence ratio: 0.9813 ± 3.7e-05

## GTAAATATGG
  switch fluorescence ratio: 0.987 ± 0.024

## GTAACAGATT
  switch fluorescence ratio: 0.976 ± 0.039

## GTAACGTTAG
  switch fluorescence ratio: 0.998 ± 0.042

## GTAACTTTTT
  switch fluorescence ratio: 1.056 ± 0.0034

## GTAAGAATGG
  switch fluorescence ratio: 1.03 ± 0.03

## GTAAGAGTGC
  switch fluorescence ratio: 1.03 ± 0.026

## GTAAGAGTTC
  switch fluorescence ratio: 1.02 ± 0.051

## GTAAGATATT
  switch fluorescence ratio: 0.9994 ± 0.0098

## GTAAGGAGAG
  switch fluorescence ratio: 1.02 ± 0.017

## GTAAGGGAAA
  switch fluorescence ratio: 1.02 ± 0.051

## GTAAGTTGGG
  switch fluorescence ratio: 0.993 ± 0.024
